Results published in publication PMC3084036 (Journal of molecular biology, 2011).

Columns and labels:
[1] = biological target: human VE-cadherin EC1-5 ectodomain, wild type, glycosylated (human); assay: AUC
[2] = biological target: human VE-cadherin EC1-2, wild type (human); assay: AUC
[3] = biological target: human VE-cadherin EC3-4, wild type, bacterially produced (human); assay: SEC
[4] = biological target: human VE-cadherin EC3-4, wild type, bacterially produced (human); assay: AUC
[5] = biological target: chicken VE-cadherin EC1-2, wild type (chicken); assay: AUC
[6] = biological target: mouse VE-cadherin EC1-2, wild type (mouse); assay: AUC
[7] = biological target: mouse cadherin-9 EC1-2, wild type (mouse); assay: AUC
[8] = biological target: mouse cadherin-10 EC1-2, wild type (mouse); assay: AUC
AUC = biological target: the molecule itself; assay: AUC

In the case of “human VE-cadherin EC1-5 ectodomain, wild type, glycosylated (domain or fragment)”, the Kd [1] is reported as 1.03 µM.

In the case of “human VE-cadherin EC1-2, wild type (domain or fragment)”, the Kd [2] is reported as 4.38 µM.

Molecule “human VE-cadherin EC3-4, wild type, bacterially produced (domain or fragment)” has a stoichiometry N [3] of 2 and a Kd [4] of 1.93 µM.

For “chicken VE-cadherin EC1-2, wild type (domain or fragment)”, the Kd [5] was 1.63 µM.

“mouse VE-cadherin EC1-2, wild type (domain or fragment)” gave a Kd [6] of 2.22 µM.

Work on “mouse cadherin-9 EC1-2, wild type (domain or fragment)” yielded a Kd [7] of 17 µM.

“mouse cadherin-10 EC1-2, wild type (domain or fragment)” was tested, and the Kd [8] was 42.2 µM.

B1: chicken VE-cadherin EC1-5 ectodomain, wild type, glycosylated (domain or fragment)
chain: DWIWNRMHIREEIDSPLPHHVGKLTSSVGNKNAMYIIEGESANTIFKVQGYDGDIYAFERLDREKKAEYELTAHIIDRRNNRSLEPPSKFIIKVSDINDNAPIFVQKIFNGSVPEMSRLGTSVTKVTAEDADDPTVAGHATVTYQIIKGNEYFTVDDSGVIFTARADLDRESQSAYEIIVKAKDALGLTGESSTATVIIRLTDINDNFPVFKHPSFHFRVPENISVGGEVGRVKVEDIDEPQHRNTKYSFVRGDYRDTFEIIANPFTNEGIIRPKKPLDFEKVAEYRFDIEATDHNVNPAYYKPGGSRSISTITIEVTDVDEPPVFTKLSYEFKVRENDPEIKTLGSVWAHDPDAAKRKIRFARRRASPNGDYVRVSDSGIIQLPKPLDREFSSLYNITVAAQEILEDGRLSDRESHAQVHVIVTDENDNAPELVYPEEPRVCENAAPGKVIIRISATDKDEISPGGFFTYSLTTEDSNFSLTENPDNTANITVKDGQFNRELAKIHYLPVIISDNGNPELSSTNTLVISVCKCNEKGDFTFCEE
modifications: glycosylated (N-linked and O-linked sugar)
In the case of B1, the Kd (AUC) is reported as 1.14 ± 0.04 µM.

B2: chicken cadherin-6b EC1-2, wild type (domain or fragment)
chain: SWMWNQFFLLEEYTGTDYQYVGKLHSDQDKGDGSLKYILSGDGAGDLFIINENTGDIQATKRLDREEKPVYILRAQAINRRTGRPVEPESEFIIKIHDINDNEPMFTKDVYNASIPEMSDVGTFVVQVTATDADDPTYGNSAKVVYSILQGQPYFSVESETGIIKTALLNMDRENREQYQVVIQAKDMGGQMGGLSGTTTVNITLTDVNDNPPRF
Work on B2 yielded a Kd (AUC) of 9.2 ± 0.6 µM.

B3: mouse cadherin-8 EC1-3, wild type (domain or fragment)
chain: GWVWNQMFVLEEFSGPEPILVGRLHTDLDPGSKKIKYILSGDGAGTIFQINDITGDIHAIKRLDREEKAEYTLTAQAVDFETNKPLEPPSEFIIKVQDINDNAPEFLNGPYHATVPEMSILGTSVTNVTATDADDPVYGNSAKLVYSILEGQPYFSIEPETAIIKTALPNMDREAKEEYLVVIQAKDMGGHSGGLSGTTTLTVTLTDVNDNPPKFAQSLYHFSVPEDVVLGTAIGRVKANDQDIGENAQSSYDIIDGDGTALFEITSDAQAQDGVIRLRKPLDFETKKSYTLKVEAANIHIDPRFSSRGPFKDTATVKIVVEDADEPPVF
Work on B3 yielded a Kd (AUC) of 15 ± 0.4 µM.

B4: mouse cadherin-11 EC1-2, wild type (domain or fragment)
chain: GWVWNQFFVIEEYTGPDPVLVGRLHSDIDSGDGNIKYILSGEGAGTIFVIDDKSGNIHATKTLDREERAQYTLMAQAVDRDTNRPLEPPSEFIVKVQDINDNPPEFLHEIYHANVPERSNVGTSVIQVTASDADDPTYGNSAKLVYSILEGQPYFSVEAQTGIIRTALPNMDREAKEEYHVVIQAKDMGGHMGGLSGTTKVTITLTD
For B4, the Kd (AUC) was 33.8 ± 0.2 µM.
